Measurements reported in patent publication US20220372514A1 (SPYBIOTECH, published 2022).
Read-outs that look alike come from different tables or passages of the source.

Tests used:
[1] = molecular target: hexon protein on the viral capsid of Ad5 vectors with SpyTag inserted into HVR loops (loop not specified); test: covalent coupling of SpyCatcher to virions, SDS-PAGE band densitometry (ImageJ)
Ad5-HVR5-DogTag Hexon [2] = molecular target: T1, Ad5-HVR5-DogTag Hexon (human adenovirus serotype 5 (Ad5), UniProt P04133 21-952)
T1 construct: also called HVR5DT; Ad5(GFP) HVR5 DogTag

Ad5-HVR1-DogTag Hexon = molecular target: T2, Ad5-HVR1-DogTag Hexon (human adenovirus serotype 5 (Ad5), UniProt P04133 2-952)
T2 construct: also called HVR1DT; hexon-DogTag

Ad5-HVR2-DogTag Hexon = molecular target: T3, Ad5-HVR2-DogTag Hexon (human adenovirus serotype 5 (Ad5), UniProt P04133 30-952)
T3 construct: also called HVR2DT; hexon-DogTag

Ad5-HVR5-DogTag Hexon [3] = molecular target: T1, Ad5-HVR5-DogTag Hexon; remark: listed apart in the source
Ad5-HVR5-DogTag Hexon [4] = molecular target: T1, Ad5-HVR5-DogTag Hexon; remark: listed apart in the source

For SpyCatcher (designed binder), the % of hexon protein coupled [1] was > 50%.

B1: DogCatcher-NANP18 (other)
chain: MAHHHHHHVGTGKLGDIEFIKVNKNDKKPLRGAVFSLQKQHPDYPDIYGAIDQNGTYQNVRTGEDGKLTFKNLSDGKYRLFENSEPAGYKPVQNKPIVAFQIVNGEVRDVTSIVPQGSGGSGGSNANPNANPNANPNANPNANPNANPNANPNANPNANPNANPNANPNANPNANPNANPNANPNANPNANPNANP
notes: also called DC-NANP18
B1: binds (Ad5-HVR5-DogTag Hexon [2]).

B2: DogCatcher-NANP9 (other)
chain: MAHHHHHHVGTGKLGDIEFIKVNKNDKKPLRGAVFSLQKQHPDYPDIYGAIDQNGTYQNVRTGEDGKLTFKNLSDGKYRLFENSEPAGYKPVQNKPIVAFQIVNGEVRDVTSIVPQGSGGSGGSNANPNANPNANPNANPNANPNANPNANPNANPNANP
B2: binds (Ad5-HVR5-DogTag Hexon [2]).

B3: DogCatcher (designed binder)
chain: MGSSHHHHHHSSGLVPRGSHMKLGDIEFIKVNKNDKKPLRGAVFSLQKQHPDYPDIYGAIDQNGTYQNVRTGEDGKLTFKNLSDGKYRLFENSEPAGYKPVQNKPIVAFQIVNGEVRDVTSIVPQ
notes: His-tagged DogCatcher expressed in E. coli; forms a spontaneous isopeptide bond with DogTag; also called DC; RrgACatcher
With B3 the “coverage of capsid hexon (%)” value (Ad5-HVR1-DogTag Hexon) was > 90%, the “coverage of capsid hexon (%)” value (Ad5-HVR2-DogTag Hexon) was > 90% and the “coverage of capsid hexon (%)” value (Ad5-HVR5-DogTag Hexon [3]) was > 90%.

B4: Biotin-SnoopTagJr (peptide)
peptide: GKLGSIEFIKVNK
modifications: N-terminal biotin
notes: also called SnJr-biotin; Biotinylated SnJr-peptide
B4: binds (Ad5-HVR5-DogTag Hexon [4]).

B5: DogCatcher-NANP Domain (other)
chain: MAHHHHHHVGTGKLGDIEFIKVNKNDKKPLRGAVFSLQKQHPDYPDIYGAIDQNGTYQNVRTGEDGKLTFKNLSDGKYRLFENSEPAGYKPVQNKPIVAFQIVNGEVRDVTSIVPQGSGGSGGSNANPNVDPNANPNVDPNANPNVDPNANPNANPNANPNANPNANPNANPNANPNANPNANPNANPNANPNANPNANPNANPNANPNANPNANPNVDPNANPNANPNANPNANPNANPNANPNANPNANPNANPNANPNANPNANPNANPNANPNANPNANPNANPNANP
B5: binds (Ad5-HVR5-DogTag Hexon [2]).
